Legend:
[1] = target: T1, GST fusion of amino acids 320-606 of LARG (GST-LARG-RH) (UniProt Q9NZN5 320-606); assay: pull-down; GST fusion (or GST alone) immobilised on glutathione-sepharose; HEK293 detergent-soluble extract diluted to 0.05% polyoxyethylene-10-lauryl ether in 50 mM HEPES pH 7.5, 1 mM EDTA, 3 mM dithiothreitol, 10 mM MgSO4; about 2 h at 4°C; three washes; immunoblot with anti-Gα12 or anti-myc; band intensities given as pulldown:load ratio; details: one partner purified
T1 construct: leukemia-associated RhoGEF (LARG), RGS-homology (RH) domain, amino acids 320-606; plasmid provided by Tohru Kozasa
T1 sequence (looked up): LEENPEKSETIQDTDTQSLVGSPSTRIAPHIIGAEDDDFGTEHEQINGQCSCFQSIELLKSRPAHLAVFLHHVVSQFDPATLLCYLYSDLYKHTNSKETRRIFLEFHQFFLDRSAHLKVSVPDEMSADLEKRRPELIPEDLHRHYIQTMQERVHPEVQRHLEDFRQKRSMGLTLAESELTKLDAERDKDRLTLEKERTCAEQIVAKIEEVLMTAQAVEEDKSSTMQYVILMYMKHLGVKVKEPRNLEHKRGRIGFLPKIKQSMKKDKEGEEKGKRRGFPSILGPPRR

[2] = target: T2, GST fusion of amino acids 1-252 of p115RhoGEF (GST-p115-RH) (UniProt Q92888 1-252); assay: as above; details: one partner purified
T2 construct: p115RhoGEF, N-terminal 252 amino acids holding the RH domain; subcloned by PCR from a plasmid with an N-terminal myc tag on p115RhoGEF 1-252; also called RGS
T2 sequence (looked up): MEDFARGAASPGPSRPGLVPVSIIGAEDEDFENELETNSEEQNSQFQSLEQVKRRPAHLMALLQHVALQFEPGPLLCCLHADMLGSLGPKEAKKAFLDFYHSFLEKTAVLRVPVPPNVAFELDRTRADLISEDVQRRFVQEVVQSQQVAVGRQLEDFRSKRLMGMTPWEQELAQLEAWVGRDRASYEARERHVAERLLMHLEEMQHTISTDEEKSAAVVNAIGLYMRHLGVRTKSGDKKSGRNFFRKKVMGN

B1: myc-Gα12^QL Glu^31/33Arg (natural protein, UniProt P27600 1-379, looked up)
chain: MSGVVRTLSRCLLPAEAGARERRAGAARDARRRARRRSRDIDALLARERRAVRRLVKILLLGAGESGKSTFLKQMRIIHGREFDQKALLEFRDTIFDNILKGSRVLVDARDKLGIPWQHSENEKHGMFLMAFENKAGLPVEPATFQLYVPALSALWRDSGIREAFSRRSEFQLGESVKYFLDNLDRIGQLNYFPSKQDILLARKATKGIVEHDFVIKKIPFKMVDVGGLRSQRQKWFQCFDGITSILFMVSSSEYDQVLMEDRRTNRLVESMNIFETIVNNKLFFNVSIILFLNKMDLLVEKVKSVSIKKHFPDFKGDPHRLEDVQRYLVQCFDRKRRNRSKPLFHHFTTAIDTENIRFVFHAVKDTILQENLKDIMLQ
notes: Gα12 with Q229L and Glu31 and Glu33 changed to Arg; also called double charge substitution mutant; source: HEK293, transfected, in detergent-soluble extract
- pulldown:load ratio, percent of myc-Gα12^QL [1]: ~18%
- pulldown:load ratio, percent of myc-Gα12^QL [2]: ~86%
